In patent US10906989 (dated 2021):

T1: staphylocoagulase SC(1-246), unlabeled (UniProt P17855 27-272)
T1 chain: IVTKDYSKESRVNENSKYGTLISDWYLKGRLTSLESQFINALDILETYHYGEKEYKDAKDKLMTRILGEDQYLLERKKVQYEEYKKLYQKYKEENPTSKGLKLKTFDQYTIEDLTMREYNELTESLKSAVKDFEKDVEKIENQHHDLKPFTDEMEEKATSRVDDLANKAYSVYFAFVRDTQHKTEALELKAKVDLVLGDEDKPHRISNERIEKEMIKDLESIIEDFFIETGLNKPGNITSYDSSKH

B1: GMA-2105 murine monoclonal antibody (antibody, V domains shown)
VH: EVKLEESGGGLVQPGGSMKLSCAASGFTFSDAWMDWVRQSPEKGLEWVAEIRTKANNHATYYAESVKGRFTISRDDSKSSVYLQMNSLRAEDTGIYYCTNVYYGNNDVKDYWGQGTSVTVSP
VL: DIVMTQSQKFMSTSVGDRVSVTCKASQNVDIYVAWYQQKPGQSPKALIYSASYRFSGVPDRFTGSGSGTDFTLSISNVQSEDLAEYFCQQYNNYPYTFGGGTKLEIKR
B2: Chimeric GMA-2105 (antibody, V domains shown)
VH: B1 VH
VL: B1 VL

Target: T1, staphylocoagulase SC(1-246), unlabeled
Experiment: fluorescence competitive titration; competitor

Row | Binder | Kd [nM]
1 | B1 | 0.71
2 | B2 | 0.75
